Blank lines part the entries; values can stand above or below the substance they belong to.
Key:
Experiment in all cases: SEC
[1] = target: CdpB1 from Archaeoglobus fulgidus (Archaeoglobus fulgidus)
[2] = target: CdpB2 from Archaeoglobus fulgidus (Archaeoglobus fulgidus)
[3] = target: SepF from Archaeoglobus fulgidus (Archaeoglobus fulgidus)

stoichiometry N [1]: 2
Substance: CdpB1 from Archaeoglobus fulgidus (natural protein)

stoichiometry N [2]: 2
Substance: CdpB2 from Archaeoglobus fulgidus (natural protein)

stoichiometry N [3]: 2
Substance: SepF from Archaeoglobus fulgidus (natural protein)
